Kd data for one molecule are collected here from paper doi:10.1101/2025.05.18.654456.

For the test, the target named is F-actin (actin purified from rabbit white skeletal muscle, polymerised) (rabbit), P68135. The test can be described thus: co-sedimentation; various concentrations of His-α-actinin in A50 buffer (50 mM HEPES-KOH pH 7.6, 50 mM KCl, 5 mM MgCl2, 1 mM EGTA) mixed with 10 μM G-actin on ice, 25°C for 60 min to polymerise actin, centrifuged at 100,000 ×g for 10 min at 25°C; supernatant and pellet on SDS-PAGE, Coomassie; model fitting; apparent dissociation constant. The note with it: remark: other sources report otherwise.

B1: Recombinant human α-actinin I (6×His-tagged), P12814 1-892 (natural protein)
chain: MDHYDSQQTNDYMQPEEDWDRDLLLDPAWEKQQRKTFTAWCNSHLRKAGTQIENIEEDFRDGLKLMLLLEVISGERLAKPERGKMRVHKISNVNKALDFIASKGVKLVSIGAEEIVDGNVKMTLGMIWTIILRFAIQDISVEETSAKEGLLLWCQRKTAPYKNVNIQNFHISWKDGLGFCALIHRHRPELIDYGKLRKDDPLTNLNTAFDVAEKYLDIPKMLDAEDIVGTARPDEKAIMTYVSSFYHAFSGAQKAETAANRICKVLAVNQENEQLMEDYEKLASDLLEWIRRTIPWLENRVPENTMHAMQQKLEDFRDYRRLHKPPKVQEKCQLEINFNTLQTKLRLSNRPAFMPSEGRMVSDINNAWGCLEQVEKGYEEWLLNEIRRLERLDHLAEKFRQKASIHEAWTDGKEAMLRQKDYETATLSEIKALLKKHEAFESDLAAHQDRVEQIAAIAQELNELDYYDSPSVNARCQKICDQWDNLGALTQKRREALERTEKLLETIDQLYLEYAKRAAPFNNWMEGAMEDLQDTFIVHTIEEIQGLTTAHEQFKATLPDADKERLAILGIHNEVSKIVQTYHVNMAGTNPYTTITPQEINGKWDHVRQLVPRRDQALTEEHARQQHNERLRKQFGAQANVIGPWIQTKMEEIGRISIEMHGTLEDQLSHLRQYEKSIVNYKPKIDQLEGDHQLIQEALIFDNKHTNYTMEHIRVGWEQLLTTIARTINEVENQILTRDAKGISQEQMNEFRASFNHFDRDHSGTLGPEEFKACLISLGYDIGNDPQGEAEFARIMSIVDPNRLGVVTFQAFIDFMSRETADTDTADQVMASFKILAGDKNYITMDELRRELPPDQAEYCIARMAPYTGPDSVPGALDYMSFSTALYGESDL
With B1, the Kd worked out at 1400 nM.
